Assay results taken from US20220380728A1 (EAST CAROLINA UNIVERSITY, published 2022).

T1: murine CD25 (IL-2 receptor alpha chain) on mouse T cells (mouse, UniProt P01590 22-268)
T1 construct: whole, on cells; Endogenous CD25 on cultured mouse Tregs and Tcons; also called IL-2Rα; surface CD25
T1 sequence (looked up): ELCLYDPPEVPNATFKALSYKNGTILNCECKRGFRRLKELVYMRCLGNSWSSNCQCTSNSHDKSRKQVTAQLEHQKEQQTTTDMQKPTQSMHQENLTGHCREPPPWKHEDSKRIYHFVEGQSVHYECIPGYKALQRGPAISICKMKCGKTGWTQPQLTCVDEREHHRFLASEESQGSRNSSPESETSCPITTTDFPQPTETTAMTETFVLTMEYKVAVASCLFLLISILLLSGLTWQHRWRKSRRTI


Tests used:
[1] = target: TGF-β produced by cells in the culture (mouse) (UniProt Q61315); experiment: cell-based or functional assay
Chain of TGF-β produced by cells in the culture (mouse) (Q61315 whole entry): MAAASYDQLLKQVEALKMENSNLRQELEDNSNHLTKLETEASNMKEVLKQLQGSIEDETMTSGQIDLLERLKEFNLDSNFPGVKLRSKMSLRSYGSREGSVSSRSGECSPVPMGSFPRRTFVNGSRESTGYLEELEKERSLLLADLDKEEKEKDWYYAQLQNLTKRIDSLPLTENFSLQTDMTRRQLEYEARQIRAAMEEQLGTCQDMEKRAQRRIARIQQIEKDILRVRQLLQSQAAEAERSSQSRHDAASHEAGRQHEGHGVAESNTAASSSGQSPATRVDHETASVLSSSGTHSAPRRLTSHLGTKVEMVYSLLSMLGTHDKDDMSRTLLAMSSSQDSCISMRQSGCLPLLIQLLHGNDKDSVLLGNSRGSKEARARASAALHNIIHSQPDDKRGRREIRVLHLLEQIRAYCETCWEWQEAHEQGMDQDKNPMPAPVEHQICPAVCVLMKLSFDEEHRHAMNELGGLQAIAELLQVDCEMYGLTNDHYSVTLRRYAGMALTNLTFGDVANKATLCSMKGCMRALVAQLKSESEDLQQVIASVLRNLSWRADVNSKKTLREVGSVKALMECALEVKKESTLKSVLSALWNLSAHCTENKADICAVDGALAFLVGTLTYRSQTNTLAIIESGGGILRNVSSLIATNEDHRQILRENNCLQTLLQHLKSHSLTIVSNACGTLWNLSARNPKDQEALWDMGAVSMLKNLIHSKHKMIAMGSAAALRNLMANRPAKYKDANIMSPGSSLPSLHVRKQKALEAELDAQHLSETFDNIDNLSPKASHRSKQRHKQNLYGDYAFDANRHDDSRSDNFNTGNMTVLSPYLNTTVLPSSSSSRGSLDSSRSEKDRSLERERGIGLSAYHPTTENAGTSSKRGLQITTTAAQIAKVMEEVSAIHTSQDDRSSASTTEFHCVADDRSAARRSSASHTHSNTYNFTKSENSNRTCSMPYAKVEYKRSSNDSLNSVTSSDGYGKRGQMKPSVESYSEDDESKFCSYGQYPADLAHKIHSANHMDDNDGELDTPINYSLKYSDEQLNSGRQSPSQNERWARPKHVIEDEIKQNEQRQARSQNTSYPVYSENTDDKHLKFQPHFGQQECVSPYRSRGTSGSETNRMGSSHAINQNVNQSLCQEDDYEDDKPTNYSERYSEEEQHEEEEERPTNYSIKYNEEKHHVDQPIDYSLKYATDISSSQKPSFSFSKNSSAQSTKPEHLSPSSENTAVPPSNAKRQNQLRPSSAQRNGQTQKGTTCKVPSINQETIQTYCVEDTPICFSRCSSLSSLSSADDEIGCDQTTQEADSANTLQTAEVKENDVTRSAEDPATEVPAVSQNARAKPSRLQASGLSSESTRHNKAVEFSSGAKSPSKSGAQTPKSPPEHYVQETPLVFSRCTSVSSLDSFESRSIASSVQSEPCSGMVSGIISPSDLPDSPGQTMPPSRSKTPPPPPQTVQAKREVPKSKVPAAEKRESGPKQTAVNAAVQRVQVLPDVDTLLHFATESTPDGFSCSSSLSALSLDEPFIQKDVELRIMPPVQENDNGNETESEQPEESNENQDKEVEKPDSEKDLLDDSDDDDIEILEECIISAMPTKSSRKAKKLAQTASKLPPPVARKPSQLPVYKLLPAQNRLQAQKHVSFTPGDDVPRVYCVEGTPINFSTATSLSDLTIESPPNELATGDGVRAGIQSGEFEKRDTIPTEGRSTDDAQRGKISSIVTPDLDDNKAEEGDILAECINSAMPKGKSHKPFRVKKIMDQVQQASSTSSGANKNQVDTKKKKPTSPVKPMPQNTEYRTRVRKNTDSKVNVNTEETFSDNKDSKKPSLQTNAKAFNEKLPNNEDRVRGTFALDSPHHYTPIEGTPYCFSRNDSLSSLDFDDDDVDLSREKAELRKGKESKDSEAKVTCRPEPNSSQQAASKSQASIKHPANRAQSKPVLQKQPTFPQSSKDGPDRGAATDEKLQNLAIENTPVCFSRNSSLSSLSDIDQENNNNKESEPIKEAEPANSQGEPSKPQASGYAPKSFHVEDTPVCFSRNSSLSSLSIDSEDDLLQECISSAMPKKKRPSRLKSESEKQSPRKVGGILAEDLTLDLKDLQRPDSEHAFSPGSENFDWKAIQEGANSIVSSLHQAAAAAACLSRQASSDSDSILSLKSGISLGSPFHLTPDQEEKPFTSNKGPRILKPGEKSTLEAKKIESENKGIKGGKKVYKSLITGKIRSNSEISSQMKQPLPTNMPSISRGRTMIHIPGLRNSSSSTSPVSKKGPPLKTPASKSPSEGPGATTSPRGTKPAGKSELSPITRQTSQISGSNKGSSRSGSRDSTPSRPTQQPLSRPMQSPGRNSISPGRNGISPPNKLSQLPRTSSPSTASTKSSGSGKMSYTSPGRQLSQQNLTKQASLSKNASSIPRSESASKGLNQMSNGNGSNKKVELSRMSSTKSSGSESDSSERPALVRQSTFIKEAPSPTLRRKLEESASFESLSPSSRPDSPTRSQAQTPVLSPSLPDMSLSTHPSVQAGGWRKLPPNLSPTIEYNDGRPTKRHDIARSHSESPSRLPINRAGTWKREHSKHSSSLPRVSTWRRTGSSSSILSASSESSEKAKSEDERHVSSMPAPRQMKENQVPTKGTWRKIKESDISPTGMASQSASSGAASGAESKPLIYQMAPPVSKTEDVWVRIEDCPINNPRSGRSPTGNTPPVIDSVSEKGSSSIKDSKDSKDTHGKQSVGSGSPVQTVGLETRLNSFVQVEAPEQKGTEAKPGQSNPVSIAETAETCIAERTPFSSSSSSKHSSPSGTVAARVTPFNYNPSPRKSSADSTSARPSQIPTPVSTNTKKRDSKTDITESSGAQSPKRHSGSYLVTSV

[2] = target: T1, murine CD25 (IL-2 receptor alpha chain) …; experiment: flow cytometry on 2D2-FIG Tregs; loss of APC-conjugated PC61 staining

FOXP3+ Treg percentages during secondary activation (1D11 at 50 µg/ml) [1]	binding result [2]	Molecule
< 50%	–	1D11.16.8 anti-mouse-TGF-β1/2/3 monoclonal antibody (mouse IgG1)
–	binds	PC61 anti-CD25 monoclonal antibody (PC61-5.3 hybridoma, rat IgG1, lambda) (antibody, V domains shown, also called PC61 mAb; anti-CD25 PC61 mAb) VH: QVQLQQSGAELVRPGTSVKLSCKVSGDTITAYYIHFVKQRPGQGLEWIGRIDPEDDSTEYAEKFKNKATITANTSSNTAHLKYSRLTSEDTATYFCTTDNMGATEFVYWGQGTLVTVSS VL: QVVLTQPKSVSASLESTVKLSCKLNSGNIGSYYMHWYQQREGRSPTNLIYRDDKRPDGAPDRFSGSIDISSNSAFLTINNVQTEDEAMYFCHSYDGRMYIFGGGTKLTVLG
